Measured values: PMC9482650, “Quantitative fragmentomics allow affinity mapping of interactomes” (Nature Communications, 2022)

Columns and labels:
Test in all cases: holdup assay
Design in all cases: key: below the threshold = too weak to quantify, mostly under pKd 3.1 to 4
Conditions in all cases: plain residues with an end cap or a label only (N-terminal biotin on a linker: ado-ado)
[1] = biological target: DLG1_3, Q12959
[2] = biological target: DLG2_3, Q15700
[3] = biological target: T1, DLG3_1, Q92796
T1 sequence (Q92796 125-227, limits assumed, looked up): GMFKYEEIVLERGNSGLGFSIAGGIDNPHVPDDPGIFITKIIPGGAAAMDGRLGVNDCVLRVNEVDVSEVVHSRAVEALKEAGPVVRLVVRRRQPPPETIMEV

[4] = biological target: T2, DVL3, Q92997
T2 sequence (Q92997 244-331, limits assumed, looked up): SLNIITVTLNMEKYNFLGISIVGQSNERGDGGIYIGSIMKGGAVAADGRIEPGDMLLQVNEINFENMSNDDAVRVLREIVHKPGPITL

[5] = biological target: GRID2IP_2, A4D2P6
[6] = biological target: T3, GRIP1_3, Q9Y3R0
T3 sequence (Q9Y3R0 247-346, limits assumed, looked up): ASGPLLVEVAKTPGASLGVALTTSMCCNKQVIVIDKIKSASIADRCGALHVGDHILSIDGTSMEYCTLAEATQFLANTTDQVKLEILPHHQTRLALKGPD

[7] = biological target: T4, GRIP1_7, Q9Y3R0
T4 sequence (Q9Y3R0 999-1096, limits assumed, looked up): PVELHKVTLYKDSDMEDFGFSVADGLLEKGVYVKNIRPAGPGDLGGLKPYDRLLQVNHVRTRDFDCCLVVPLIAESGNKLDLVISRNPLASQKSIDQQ

[8] = biological target: GRIP2_7, Q9C0E4
[9] = biological target: HTRA1, Q92743
[10] = biological target: Inadl_5, Q8NI35
[11] = biological target: LIMK2, P53671
[12] = biological target: T5, LRRC7, Q96NW7
T5 sequence (Q96NW7 1440-1537, limits assumed, looked up): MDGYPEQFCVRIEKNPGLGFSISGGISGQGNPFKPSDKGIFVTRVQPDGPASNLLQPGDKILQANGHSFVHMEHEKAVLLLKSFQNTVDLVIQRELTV

[13] = biological target: MAGI2_4, Q86UL8
[14] = biological target: MAST1, Q9Y2H9
[15] = biological target: T6, MPP7, Q5T2T1
T6 sequence (Q5T2T1 134-230, limits assumed, looked up): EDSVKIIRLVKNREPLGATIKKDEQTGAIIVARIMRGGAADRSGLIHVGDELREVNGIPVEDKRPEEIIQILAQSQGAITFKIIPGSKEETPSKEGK

[16] = biological target: T7, NHERF3_3, Q5T2W1
T7 sequence (Q5T2W1 238-333, limits assumed, looked up): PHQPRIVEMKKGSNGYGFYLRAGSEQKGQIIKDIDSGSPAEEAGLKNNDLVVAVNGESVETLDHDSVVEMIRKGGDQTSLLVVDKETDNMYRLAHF

[17] = biological target: T8, NHERF3_4, Q5T2W1
T8 sequence (Q5T2W1 373-468, limits assumed, looked up): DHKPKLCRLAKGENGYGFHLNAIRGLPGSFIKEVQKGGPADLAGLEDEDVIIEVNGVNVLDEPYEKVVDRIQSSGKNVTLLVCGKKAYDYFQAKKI

[18] = biological target: T9, PCLO, Q9Y6V0
T9 sequence (Q9Y6V0 4491-4600, limits assumed, looked up): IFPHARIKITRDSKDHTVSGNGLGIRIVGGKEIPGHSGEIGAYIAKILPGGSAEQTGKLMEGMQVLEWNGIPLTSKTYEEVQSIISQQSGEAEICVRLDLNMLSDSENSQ

[19] = biological target: PDZRN4_1, Q6ZMN7
[20] = biological target: T10, RHPN1, Q8TCX5
T10 sequence (Q8TCX5 508-602, limits assumed, looked up): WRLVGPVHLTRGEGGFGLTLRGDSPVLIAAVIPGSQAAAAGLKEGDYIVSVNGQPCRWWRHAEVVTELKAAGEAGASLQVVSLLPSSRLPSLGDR

[21] = biological target: T11, SNTA1, Q13424
T11 sequence (Q13424 82-180, limits assumed, looked up): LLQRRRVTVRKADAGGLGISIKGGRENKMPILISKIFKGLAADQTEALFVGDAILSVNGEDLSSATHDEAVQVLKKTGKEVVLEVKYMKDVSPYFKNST

[22] = biological target: T12, SYNJ2BP, P57105
T12 sequence (P57105 8-110, limits assumed, looked up): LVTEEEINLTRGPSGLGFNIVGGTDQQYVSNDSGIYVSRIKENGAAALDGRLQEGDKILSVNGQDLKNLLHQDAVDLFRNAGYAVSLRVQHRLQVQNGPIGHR

[23] = biological target: T13, TX1BP3, O14907
T13 sequence (O14907 10-122, limits assumed, looked up): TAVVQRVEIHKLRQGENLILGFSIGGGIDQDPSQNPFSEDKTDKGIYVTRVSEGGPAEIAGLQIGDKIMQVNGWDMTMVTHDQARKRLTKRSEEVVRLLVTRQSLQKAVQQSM

Chain of HTRA1, Q92743 (Q92743 360-477): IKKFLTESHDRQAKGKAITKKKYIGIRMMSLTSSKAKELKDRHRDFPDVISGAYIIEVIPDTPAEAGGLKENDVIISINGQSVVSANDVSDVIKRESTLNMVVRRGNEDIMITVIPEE
Chain of DLG1_3, Q12959 (Q12959 457-571): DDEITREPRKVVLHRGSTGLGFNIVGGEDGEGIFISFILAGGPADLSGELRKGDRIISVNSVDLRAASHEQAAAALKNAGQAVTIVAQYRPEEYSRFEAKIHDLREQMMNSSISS
Chain of GRIP2_7, Q9C0E4 (Q9C0E4 934-1023): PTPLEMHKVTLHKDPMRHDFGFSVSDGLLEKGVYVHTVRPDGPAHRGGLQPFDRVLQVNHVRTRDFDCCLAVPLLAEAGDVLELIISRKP
Chain of PDZRN4_1, Q6ZMN7 (Q6ZMN7 213-318): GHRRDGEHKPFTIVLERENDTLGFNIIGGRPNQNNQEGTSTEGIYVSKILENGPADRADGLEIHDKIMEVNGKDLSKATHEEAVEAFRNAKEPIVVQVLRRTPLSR
Chain of LIMK2, P53671 (P53671 143-248): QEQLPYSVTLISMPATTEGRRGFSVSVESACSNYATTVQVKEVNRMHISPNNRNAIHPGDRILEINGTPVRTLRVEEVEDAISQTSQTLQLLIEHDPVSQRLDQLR
Chain of MAGI2_4, Q86UL8 (Q86UL8 772-865): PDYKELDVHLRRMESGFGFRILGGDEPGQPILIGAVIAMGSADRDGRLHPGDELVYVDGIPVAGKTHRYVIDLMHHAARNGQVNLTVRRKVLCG
Chain of MAST1, Q9Y2H9 (Q9Y2H9 962-1065): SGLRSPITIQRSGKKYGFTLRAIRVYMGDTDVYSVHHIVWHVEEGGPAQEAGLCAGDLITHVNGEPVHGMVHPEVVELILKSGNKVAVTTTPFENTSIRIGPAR
Chain of GRID2IP_2, A4D2P6 (A4D2P6 272-370): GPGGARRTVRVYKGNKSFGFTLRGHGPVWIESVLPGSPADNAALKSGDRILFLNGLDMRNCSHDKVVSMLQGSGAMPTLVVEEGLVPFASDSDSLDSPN
Chain of Inadl_5, Q8NI35 (Q8NI35 673-780): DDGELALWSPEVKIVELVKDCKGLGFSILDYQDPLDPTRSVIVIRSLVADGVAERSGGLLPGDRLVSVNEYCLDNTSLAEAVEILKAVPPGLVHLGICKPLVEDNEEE

Binder	pKd [1]	pKd [2]	pKd [3]	pKd [4]	pKd [5]	pKd [6]	pKd [7]	pKd [8]	pKd [9]	pKd [10]	pKd [11]	pKd [12]	pKd [13]	pKd [14]	pKd [15]	pKd [16]	pKd [17]	pKd [18]	pKd [19]	pKd [20]	also measured
SAGADSETHC [SLCO1B1, Q9Y6L6]	below the threshold	below the threshold	below the threshold	below the threshold	below the threshold	below the threshold	below the threshold	below the threshold	3.51	below the threshold	below the threshold	below the threshold	below the threshold	3.9	below the threshold	below the threshold	below the threshold	below the threshold	below the threshold	3.49	pKd [21]: below the threshold; pKd [22]: below the threshold; pKd [23]: below the threshold
GVHSNDHSVV [LPAR1, Q92633]	below the threshold	below the threshold	below the threshold	below the threshold	3.96	below the threshold	below the threshold	below the threshold	4.3	below the threshold	below the threshold	below the threshold	below the threshold	3.89	below the threshold	below the threshold	below the threshold	below the threshold	below the threshold	3.78	pKd [21]: 3.68; pKd [22]: 3.7; pKd [23]: below the threshold
WAKEKQHTRL [SLC17A1, Q14916]	below the threshold	below the threshold	below the threshold	below the threshold	4.25	below the threshold	below the threshold	below the threshold	below the threshold	below the threshold	below the threshold	below the threshold	below the threshold	4.89	below the threshold	4.28	4.11	below the threshold	3.85	3.97	pKd [21]: 3.77; pKd [22]: below the threshold; pKd [23]: below the threshold
YAEKRMLTEV [KCNA6, P17658]	below the threshold	3.98	below the threshold	below the threshold	3.72	below the threshold	below the threshold	below the threshold	3.91	below the threshold	below the threshold	below the threshold	4.34	4.65	below the threshold	below the threshold	below the threshold	below the threshold	below the threshold	3.8	pKd [21]: below the threshold; pKd [22]: 4.05; pKd [23]: 4.29
PALKNGQYWV [CSPG4, Q6UVK1]	below the threshold	below the threshold	below the threshold	4.2	3.75	below the threshold	5.63	5.83	5.1	4.31	below the threshold	3.7	3.82	below the threshold	3.96	below the threshold	below the threshold	below the threshold	below the threshold	below the threshold	pKd [21]: below the threshold; pKd [22]: below the threshold; pKd [23]: 4.19
FLVTEFNVML [DFNB31, Q9P202]	below the threshold	below the threshold	below the threshold	3.66	below the threshold	below the threshold	below the threshold	below the threshold	4.4	below the threshold	below the threshold	3.64	below the threshold	3.89	below the threshold	below the threshold	4.55	below the threshold	below the threshold	below the threshold	pKd [21]: 3.73; pKd [22]: below the threshold; pKd [23]: 3.96
